These results are taken from article doi:10.1101/2023.01.10.523494 (bioRxiv, 2023).

This assay concerns the target receptor binding domain (RBD) of the wildtype (WT) SARS-CoV-2 spike protein (SARS-CoV-2, wildtype (sequence as in …)).

Where a chain is given by its changes, count along the chain named.

B1: mRBD5 (antibody, V domains shown)
VH: QVQLQQPGAELVKPGASVKVSCKASGYTFTSYWMHWVKQRPGQGLEWIGRIHPSDSDTNYNQKFKGKATLTVDKSSSTAYMQLSSLTSEDSAVYYCAIDWDGDYWGQGTTLTVSS
VL: DIVMSQSPSSLAVSAGEKVTMSCKSSQSLLNSRTRKNYLAWYQQKPGQSPKLLIYWASTRESGVPDRFTGSGSGTDFTLTISSVQAEDLAVYYCKQSYNLWTFGGGTKLEIK
For the molecule B1, the binding result is “binds”.

B2: mRBD6 (antibody, V domains shown)
VH: B1 VH with I98M, G102V
VL: B1 VL with W101L, G105A, I111L
Regarding B2, the binding result was “binds”.

B3: mRBD25 (antibody, V domains shown)
VH: QVQLQQSGPELVKPGASVKISCKASGYAFSNSWMNWVKQRPGKGLEWIGRIYPGDGDTNYNGKFKGKATLTADKSSSTAYMQLSSLTSEDSAVYFCANYYGDYWGQGTTLTVSS
VL: QIVLTQSPALMSASPGEKVTMTCSASSSVSYMYWYQQKPRSSPKPWIYLTSNLASGVPARFSGSGSGTSYSLTISSMEAEDAATYYCQQWSSNPYTFGGGTKLEIK
For the molecule B3, the binding result was “binds”.

B4: mRBD11 (antibody, V domains shown)
VH: QVQLQQSGAELARPGASVKLSCKASGYTFISNGISWVKQRTGQGLEWIGEIYPRNGNTYYNEKFKGKATLTADKSSSTAYMELRSLTSEDSAVFFCARDYYYGNFDYWGQGTTLTVSS
VL: NIVLTQSPASLAVSLGQRATISCRASESVDSYGNSFMHWYQQKPGQPPKLLIYLASNLESGVPARFSGSGSRTDFTLTIDPVEADDAATYYCQQNNEDPYTFGGGTKLEIK
For the molecule B4, the binding result is “binds”.

B5: mRBD16 (antibody, V domains shown)
VH: QIQLVQSGPELKKPGETVKISCKASGYTLTEYPMHWVKQAPGKGFKWMGMIYTDTGEPTYAEEFKGRFAFSLETSASTAYLQINNLKNEDTATYFCVRAGPSFAMDYWGQGTSVTVSS
VL: B4 VL
Consider B5, for which the binding result is “binds”.

B6: mRBD20 (antibody, V domains shown)
VH: B5 VH with F103Y
VL: B4 VL with V13M, Q42L
As to B6, the binding result is given as “binds”.

B7: mRBD15 (antibody, V domains shown)
VH: B5 VH with E10D, L29F, K46Q, A92S, F103Y
VL: B4 VL with L58V, Q93H, N95I
For the molecule B7, the binding result is reported as “binds”.

B8: mRBD22 (antibody, V domains shown)
VH: QIQLVQSGPELKKPGETVKISCKASGYTFTEYPMHWVKQAPGKGFKWMGMIYTDTGEPTYAEEFKGRFAFSLETSASTAYLQINNLKNEDTATYFCVRGGYYYFDYWGQGTTLTVSS
VL: B4 VL with Y100W
B8: the binding result was “binds”.

B9: mRBD21 (antibody, V domains shown)
VH: B5 VH with L29F, E31K, F68C, A99W, P101G, F103Y, M105L
VL: B4 VL with N1D, L54R, V62I, D80N, A87V, N95S, Y100L, G104A, I110L
For B9, the binding result is listed as “binds”.

B10: mRBD19 (antibody, V domains shown)
VH: B5 VH with L29F, A99G, S102Y, F103Y
VL: B4 VL with Y100W
With B10, the binding result is recorded as “binds”.

B11: mRBD7 (antibody, V domains shown)
VH: QVQLKQSGAELVRPGASVKLSCKASGYTFTDYYINWVKQRPGQGLEWIARIYPGSGNTYYNEKFKGKATLTAEKSSSTAYMQLSSLTSEDSAVYFCARYPLYDYDEEDYFDYWGQGTTLTVSS
VL: DIQMTQTTSSLSASLGDRVTISCRASQDISNYLNWYQQKPDGTVKLLIYYTSRLHSGVPSRFSGSGSGTDYSLTISNLEQEDIATYFCQQGNTLPYTFGGGTKLEIK
B11: the binding result is recorded as “binds”.

B12: mRBD12 (antibody, V domains shown)
VH: QVQLQQSGAELARPGASVKLSCKASGYTFTSYGISWVKQRTGQGLEWIGEIYPRSGNTYYNEKFKGKATLTADKSSSTAYMEVRSLTSEDSAVYFCAREGGYGYVMDYWGQGTSVTVSS
VL: B11 VL with L73F, Y96W
Take B12: the binding result was “binds”.

B13: mRBD10 (antibody, V domains shown)
VH: QVQLKQSGAELVRPGASVKLSCKASGYTFTDYYINWVKQRPGQGLEWIARIYPGSGNTYYNEKFKGKATLTAEKSSSTAYMQLSSLTSEDSAVYFCARDYGSSYVDYFDYWGQGTTLTVSS
VL: B11 VL with Y96L, G100A, I106L
In the case of B13, the binding result was “binds”.

B14: mRBD17 (antibody, V domains shown)
VH: B5 VH
VL: B11 VL with I83F
For the molecule B14, the binding result is “binds”.

B15: hRBD6 (antibody, V domains shown)
VH: QVQLQQWGAGLLKPSETLSLSCAVYGGAFSDYYWSWIRQPPGKGLEWIGEIDLSGSTNYNPSLKSRVTISVDTSKNQFSLKLISVTAADTAVYYCARTHLIGYCSGGSCYSGPDPSNWFDPWGQGTLVTVSS
VL: SSELTQDPAVSVALGQTVRITCQGDSLRSYYASWYQQKPGQAPVLVIYGKNNRPSGIPDRFSGSSSGNTASLTITGAQAEDEADYYCNSRDTSGHHPVFGGGTKLTVL
Take B15: the binding result is “binds”.

B16: mRBD3 (antibody, V domains shown)
VH: QVQLQQPGAELVMPGTSVKLSCKASGYIFTSYWMHWVKQRPGQGLEWIGEIDPSDNYTNYNQKFKGKSTLTVDKSSSTAYMQLSSLTSEDSAVYYCARGGLYYYGSSYDAMDYWGQGTSVTVSS
VL: DIVMTQAAPSVPVTPGESVSISCRSSKSLLHSNGNTYLYWFLQRPGQSPQLLIYRMSNLASGVPDRFSGSGSGTAFTLRISRVEAEDVGAYYCMQHLEYPFTFGSGTKLEIK
Take B16: the binding result is “binds”.

B17: mRBD23 (antibody, V domains shown)
VH: QVQLQQPGAELVRPGSSVKLSCKASGYTFTSYWMHWVKQRPIQGLEWIGNIDPSDSETHYNQKFKDKATLTVDKSSSTAYMQLSSLTSEDSAVYYCTRPGSLRSRGWYFDVWGTGTTVTVSS
VL: B16 VL with A90V, F101Y, S105G
With B17, the binding result is on record as “binds”.

B18: mRBD4 (antibody, V domains shown)
VH: QVQLQQPGAELVMPGASVKLSCKASGYTFTSYWMHWVKQRPGQGLEWIGEIDPSDSYTNYNQKFKDKSTLTVDKSSSTAYMQLSSLTSEDSAVYYCARGGVYYYGSSHYFDYWGQGTTLTVSS
VL: B16 VL with L51F, A90V
Regarding B18, the binding result is “binds”.

B19: hRBD1 (antibody, V domains shown)
VH: QVQLVQSGSELKKPGASVKVSCKASGNTLTNHALNWVRQAPGQGLEWMGWINTNTGIPTYAQGFTGRFVFSLDTSVSTAYLQISSLKAEDTAVYYCARVGQTAIAALDDAFDIWGQGTMVTVSS
VL: not shown
In the case of B19, the binding result is given as “binds”.

B20: hRBD2 (antibody, V domains shown)
VH: B19 VH with N27Y, L29F, T30S, H32Y, L34I, I57H, T74A, S77T, Q101R
VL: not shown
Turning to B20, the binding result is “binds”.

B21: hRBD10 (antibody, V domains shown)
VH: EVQLVESGGGLVQPGGSLRLSCSASGFTFTTYNMNWVRQAPGKGLEWVSYISSSSSTIYYADSVEGRFTISRDNAKNSLYLQMNSLRDEDTAVYYCARGVGATSYYYHGMDVWGQGTTVSVSS
VL: DIQMTQSPSSLSASVGDRVTITCRASQSIYSYLNWYKQKAGKAPKLLIYAASSLQSGVPSRFSGSGSGTDFTLTIISLQPEDFATYYCQQSYSTPPTFGQGTKVEIK
Consider B21, for which the binding result is “binds”.

B22: mRBD18 (antibody, V domains shown)
VH: QIQLVQSGPELKKPGETVKISCKASGYTFTDYPMHWVQQAPGKGFKWMGMIYTDTGEPTYAEEFKGRFAFSLETSASTAYLQINNLKNEDTATYFCVRWAGYFDYWGQGTTLTVSS
VL: DIVLTQSPASLAVSLGQRATISCRASESVDSYGNSFMDWYQQKPGQPPKLLIYRASNLESGIPARFSGSGSRTDFTLIINPVEADDVATYYCQQSNEHPLTFGAGTKLELK
As for B22, the binding result is given as “binds”.

B23: mRBD24 (antibody, V domains shown)
VH: EVQLQQSGPDLVKPGASVKISCKASGYTFTDYYMNWVKQSHGKSLEWIGDINPNNGGTYYNQKFKGKATLTVDKSSSTAYMELRSLTSEDSAVYYCARQLRRWGQGTLVTVSA
VL: not shown
In the case of B23, the binding result is “binds”.

B24: mRBD14 (antibody, V domains shown)
VH: EVKLVESGGGLVQPGGSLSLSCAASGFTFTDYYMSWVRQPPGKALEWLGFIRNKANGYTTEYSASVKGRFTISRDNSQSILYLQMNALRAEDSATYYCARYIRTGWYFDVWGTGTTVTVSS
VL: DIVMTQSQKFMSTSVRDRVSITCKASQNVRTAVAWYQQKPGQSPKALIYLASNRHTGVPDRFTGSGSGTDFTLTISNVQSEDLADYFCLQHWNYPWTFGGGTKLEIK
Take B24: the binding result is on record as “binds”.

B25: hRBD11 (antibody, V domains shown)
VH: QVQLQESGPGLVKPSQTLSLTCTVSGGSISSGGYYWSWIRQHPGKGLEWIGYIFYSGSTYYNPSLKSRVIISVDTSKNQFSLKLSSVTAADTAAYYCARVNRVYGSGSYSLDPWGQGTLVTVSS
VL: QSALTQPASVSGSPGQSITISCTGTSRDVGDYDYVSWYQQHPGKAPKLMIYEGSERPSGVSNRFSGSKSGNTASLTISGLQAEDEADYYCCSYTGSSTSFLFGTGTKVTVL
With B25, the binding result is listed as “binds”.
